How the values were obtained:
[1] = molecular target: T1, human GFRα3 expressed with a C-terminal mFc tag (human); test: SPR, Ab captured, 37C
T1 construct: also called hGFRα3-mFc
T1 chain: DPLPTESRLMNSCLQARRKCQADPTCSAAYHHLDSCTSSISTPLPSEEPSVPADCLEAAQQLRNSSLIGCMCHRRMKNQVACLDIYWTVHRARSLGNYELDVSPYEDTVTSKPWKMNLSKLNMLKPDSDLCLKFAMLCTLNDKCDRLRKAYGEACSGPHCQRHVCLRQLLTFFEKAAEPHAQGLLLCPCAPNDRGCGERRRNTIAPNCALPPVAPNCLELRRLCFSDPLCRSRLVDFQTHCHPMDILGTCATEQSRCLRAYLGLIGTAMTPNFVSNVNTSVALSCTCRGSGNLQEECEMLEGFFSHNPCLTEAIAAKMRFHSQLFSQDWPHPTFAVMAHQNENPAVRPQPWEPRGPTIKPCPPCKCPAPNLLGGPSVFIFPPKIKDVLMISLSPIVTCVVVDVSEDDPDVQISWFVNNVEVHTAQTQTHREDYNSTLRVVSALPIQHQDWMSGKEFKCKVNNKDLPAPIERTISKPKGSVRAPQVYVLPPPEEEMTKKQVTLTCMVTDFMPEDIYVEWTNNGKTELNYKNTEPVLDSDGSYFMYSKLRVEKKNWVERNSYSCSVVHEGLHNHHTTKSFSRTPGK
Procedure, shortened: (§1)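 Captured antibodies on a CM5 sensor were exposed to GFRα3 in HBS-EP or PBS/0.05% P20. The mmh-tagged proteins ran at 200–7.4 nM and the hFc-tagged protein at 100–3.7 nM. Rate constants were obtained by a 1:1 fit.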

[2] = molecular target: T2, monkey GFRα3 expressed with a C-terminal myc-myc-hexahistidine tag (monkey (Mf), UniProt O60609 32-374 (human entry), limits assumed); test: SPR, Ab captured, 37C
T2 construct: also called MfGFRα3-mmh; MfGFRα3-mmH
T2 chain: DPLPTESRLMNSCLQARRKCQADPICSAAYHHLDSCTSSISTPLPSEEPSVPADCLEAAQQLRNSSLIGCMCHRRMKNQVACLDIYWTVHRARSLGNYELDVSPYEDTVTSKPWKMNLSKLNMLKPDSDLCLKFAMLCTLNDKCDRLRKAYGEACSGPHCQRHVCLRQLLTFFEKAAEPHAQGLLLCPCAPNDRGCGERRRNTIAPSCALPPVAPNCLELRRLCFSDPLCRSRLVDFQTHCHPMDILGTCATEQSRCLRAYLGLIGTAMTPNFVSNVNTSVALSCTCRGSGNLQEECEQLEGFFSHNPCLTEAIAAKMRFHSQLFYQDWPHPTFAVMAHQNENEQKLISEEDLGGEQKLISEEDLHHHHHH
Procedure, shortened: as §1

[3] = molecular target: T3, human GFRα3 expressed with a C-terminal myc-myc-hexahistidine tag (human, UniProt O60609 32-374, biotinylated (sites not given) in ELISA format 2 and in the Octet cross-competition; not in SPR); test: Octet cross-competition; biotin-hGFRα3-mmH pre-saturated with first antibody H4H2342P
T3 construct: also called hGFRα3-mmh; hGFRα3-mmH
Procedure: (§2) A cross-competition assay was conducted to assess the ability of select antibodies to compete with one another for binding to human GFRα3 using an Octet RED384 biosensor (Fortebio Inc.). The entire experiment was performed at 25° C. with the flow rate of 1000 rpm in Octet HBST buffer (0.01 M HEPES pH7.4, 0.15M NaCl, 3 mM EDTA, 0.05% v/v Surfactant P20, 0.1 mg/mL BSA). To assess whether 2 antibodies were able to compete with one another for binding to their respective epitopes on biotinylated recombinant human GFRα3 expressed with a C-terminal myc-myc-hexahistidine tag (biotin-hGFRα3-mmH; SEQ ID:370), around ˜1.2 nm of biotin-hGFRα3-mmH was first captured onto streptavidin-coated Octet sensor tips (Fortebio Inc, #18-5019) by submerging the tips for 1 minute into a 10 μg/mL solution of biotin-hGFRα3-mmH. The antigen coated sensor tips were then placed into wells containing 25 μg/mL solution of a first anti-GFRα3 monoclonal antibody for 4 minutes to saturate the biotin-hGFRα3-mmH surface. The sensor tips were then subsequently dipped into wells containing 25 μ/mL solution of a second anti-GFRα3 monoclonal antibody. The sensor tips were washed in Octet HBST buffer in between every step of the experiment. The real-time binding response was monitored during the course of the experiment and the binding response at the end of every step was recorded as shown in FIG. 9. The response of mAb-2 binding to biotin-hGFRα3-mmH pre-complexed with the first antibody was compared and competitive/non-competitive behavior of different anti-GFRα3 monoclonal antibodies was determined.

[4] = molecular target: T3, human GFRα3 expressed with a C-terminal …; test: Octet cross-competition; biotin-hGFRα3-mmH pre-saturated with first antibody H4H2357S
Procedure: as §2

T3 sequence (O60609 other isoform, or with tags, fused parts or gaps limits assumed): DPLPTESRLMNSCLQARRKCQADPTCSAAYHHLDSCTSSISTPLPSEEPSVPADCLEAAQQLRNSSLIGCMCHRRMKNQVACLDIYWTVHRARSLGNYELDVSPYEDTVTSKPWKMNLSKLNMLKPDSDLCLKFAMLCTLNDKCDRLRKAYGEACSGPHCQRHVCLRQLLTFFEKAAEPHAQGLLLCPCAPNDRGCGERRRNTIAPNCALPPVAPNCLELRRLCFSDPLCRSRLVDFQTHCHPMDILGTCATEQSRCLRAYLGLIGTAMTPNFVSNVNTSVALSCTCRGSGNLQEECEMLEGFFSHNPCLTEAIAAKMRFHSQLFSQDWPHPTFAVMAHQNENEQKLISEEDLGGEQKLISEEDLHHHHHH

Kd [1]: 0.0492 nM
koff [1]: 0.000126 s⁻¹
kon [1]: 2.56e+06 M⁻¹ s⁻¹
t1/2 [1]: 92 min
Kd [2]: 12 nM
koff [2]: 0.000896 s⁻¹
kon [2]: 74800 M⁻¹ s⁻¹
t1/2 [2]: 13 min
binding response of second antibody (nm) [3]: 1.46 nm
binding response of second antibody (nm) [4]: 1.35 nm
B1: H4H2350P (antibody, human IgG4, V domains shown)
VH: QVQLQESGPGLVKPSETLSLTCTVSGGSISTYYWSWFRQPPGKGLEWIGYIYYSGSTNHNPSLKSRVTISVDTSKNQFSLKLRSVTAADTAVYYCARVGPVGWGSWGNFDYWGQGTLVTVSS
VL: DIQLTQSPSFLSASVGDRVTITCWASQGISSYLAWSQQKPGKAPKLLIYAASTLQSGVPSRFSGSGSGTEFTLTISSLQPEDFATYYCQQLNSYPWTFGQGTKVEIK
notes: human IgG4 Fc (H4H)

Source: patent US20140056903A1 (Regeneron, published 2014)
